Values of other authors as cited in patent US20100167984A1, “Complex between human insulin and an amphiphilic polymer and use of this complex in the preparation of a fast-acting human insulin formulation” (ADOCIA, priority 2008, published 2010).

How the values were obtained:
[1] = hexamer form, at 4° C.
[2] = due to dissociation equilibria of hexamers; Brange J. et al. 1999

## Human insulin: human insulin, assembled in the hexamer form
[1]
  stability (storage time): approximately 2 years
[2]
  slowing down of action in comparison with a fast-acting insulin analog: approximately 20 minutes
